± gives the uncertainty stated by the source.
Assay: protein stability index of a GFP-peptide fusion (yeast GPS) (PSI 1-4); higher = more stable; sorted into four equal gates, so the index is relative within each strain
In short: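 Sequencing reads from sorted gates were used to score each peptide. The library consisted of tiled 17-residue yeast protein peptides fused downstream of GFP on a Cherry-expressing plasmid, pooled and carried in yeast. Mid-log cultures in leucine-free medium were split into four equal gates by GFP/Cherry ratio, and each gate's plasmids were PCR-amplified and Illumina-sequenced. The protein stability index adds up, over all gates, the read frequency multiplied by the gate number.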

| Sequence | protein stability index (doa10∆) | protein stability index (pdr5∆) | protein stability index (san1∆) | protein stability index (ubr1∆) |
| --- | --- | --- | --- | --- |
| KIESSVESQFSAGRLYA [RPS8A] | 2.81 ± 0.11 | 2.85 ± 0.087 | 1.96 ± 0.15 | 2.77 ± 0.13 |
| KLSDNISICMILCGIQE [YDL116W/NUP84] | 2.23 ± 0.074 | 1.86 ± 0.083 | 2.62 ± 0.12 | 2.06 ± 0.11 |
| QKVFVRSRNGGATKIVR [DIS3] | 2.33 ± 0.085 | 1.59 ± 0.11 | 2.88 ± 0.1 | 2.45 ± 0.21 |
| IESFVELGVSIYDFPGT [NUT2] | 2.83 ± 0.081 | 3.07 ± 0.095 | 2.53 ± 0.09 | 2.2 ± 0.038 |
| HINKKSQLDLFLRTMKL [GRR1] | 1.94 ± 0.067 | 2.33 ± 0.076 | 1.21 ± 0.11 | 2.02 ± 0.1 |
| VKKLEIQQHARYDCSFC [RPL43A] | 2.73 ± 0.11 | 2.87 ± 0.092 | 2.96 ± 0.068 | 3.3 ± 0.092 |
| GMIVISMENYHLLIKII [SRB8] | 1.96 ± 0.043 | 2.04 ± 0.044 | 2.71 ± 0.048 | 2.66 ± 0.045 |
| GASINSMKANTSTNPNG [ARP7] | 2.72 ± 0.089 | 3.19 ± 0.089 | 2.74 ± 0.067 | 2.93 ± 0.058 |
| SHISASASPHLAPNMQL [SNF2] | 2.92 ± 0.041 | 2.83 ± 0.04 | 2.93 ± 0.033 | 3.1 ± 0.032 |
| AKRDYIISRLNADFQKP [FAS1] | 3.32 ± 0.13 | 3.07 ± 0.085 | 2.94 ± 0.091 | 3.22 ± 0.077 |
| SPMLYKVPDISSDGQLK [BRR2] | 2.52 ± 0.047 | 2.56 ± 0.045 | 2.61 ± 0.054 | 2.58 ± 0.03 |
| DEMYELTDPMTVMFFYH [DIB1] | 2.69 ± 0.092 | 3.01 ± 0.11 | 2.83 ± 0.14 | 2.85 ± 0.11 |
| AELNLPTVDEQRQYKVQ [SNF11] | 3.22 ± 0.081 | 3.3 ± 0.08 | 3.12 ± 0.092 | 3.31 ± 0.067 |
| QVVLGGTSKYLINGHRA [SMC2] | 2.88 ± 0.059 | 3.19 ± 0.066 | 2.97 ± 0.062 | 2.96 ± 0.065 |
| TSPVTGATEKRKCAKPF [CSL4] | 1.89 ± 0.23 | 1.27 ± 0.15 |  |  |
| AAAAVCEKWAASSWAKK [RPL14A] | 2.52 ± 0.052 | 3.08 ± 0.089 | 2.56 ± 0.056 | 2.68 ± 0.058 |
| VIVLSNISHLLEIASSI [SWI1] | 2.35 ± 0.059 | 1.67 ± 0.063 | 2.07 ± 0.082 | 1.8 ± 0.041 |
| NDDIEWMLSICVEWRLP [YJR042W/NUP85] | 1.64 ± 0.069 | 1.53 ± 0.036 | 1.83 ± 0.11 | 1.9 ± 0.058 |
| NLSQENDNEGKHISASI [YAR002W/NUP60] | 3.04 ± 0.075 | 3.34 ± 0.06 | 3.13 ± 0.054 | 3.12 ± 0.044 |
| DTFELIKTFLVDLTSSN [YDL116W/NUP84] | 2.69 ± 0.07 | 3.19 ± 0.073 | 2.55 ± 0.08 | 3.1 ± 0.046 |

| Sequence | protein stability index (doa10∆) | protein stability index (pdr5∆) | protein stability index (san1∆) | protein stability index (ubr1∆) |
| --- | --- | --- | --- | --- |
| RTVKNILVSVLPGTEKG [CSL4] | 1.65 ± 0.27 |  |  |  |
| KIDGNPDELIKAGVEAI [PRE5] | 3.32 ± 0.17 | 3.44 ± 0.2 | 3.29 ± 0.083 | 3.36 ± 0.092 |
| CRELHNKHLTTLVEIFL [SSN3] | 1.59 ± 0.04 | 2.03 ± 0.045 | 1.82 ± 0.065 | 1.7 ± 0.04 |
| ERRMQVTAEDFKQAKER [RPT2] | 3.02 ± 0.1 | 3.29 ± 0.11 | 3 ± 0.088 | 3.56 ± 0.12 |
| SSDGALCMDSSYIGTII [POP1] | 3.09 ± 0.09 | 2.71 ± 0.083 | 3.04 ± 0.12 | 3.23 ± 0.14 |
| ASLHSKELTRIPGEEVE [MED4] | 2.97 ± 0.12 | 3.29 ± 0.18 | 3.03 ± 0.12 |  |
| TARVMGGLKNGVLYQGN [DIS3] | 3.19 ± 0.069 | 3.3 ± 0.071 | 3.06 ± 0.047 | 3.13 ± 0.056 |
| LQPPKTSSRGRDHKSYS [SMC4] | 2.9 ± 0.056 | 3.21 ± 0.061 | 3 ± 0.071 | 2.86 ± 0.049 |
| ITSWYENHNKGKLWKDV [QCR9] | 2.81 ± 0.21 | 3.14 ± 0.23 | 3.3 ± 0.1 | 3.21 ± 0.13 |
| SINATALAFGYVKSLHK [SIN4] | 3.51 ± 0.21 | 2.92 ± 0.12 | 3.1 ± 0.22 | 3.08 ± 0.08 |
| GSKQILKTEAANVLDPS [BRR2] | 3.11 ± 0.075 | 2.99 ± 0.076 | 3 ± 0.056 | 3.19 ± 0.067 |
| QQQQMQQQQQQQQQQQN [SSN2] | 2.31 ± 0.11 | 2.63 ± 0.098 | 2.8 ± 0.18 | 2.83 ± 0.1 |
| SDKIPYVAPTKKEYIEL [SRB4] | 2.77 ± 0.1 | 2.7 ± 0.1 | 2.32 ± 0.11 | 2.8 ± 0.12 |
| KWKPVLSHIVYFLVLSP [RPN5] | 1.39 ± 0.033 | 1.25 ± 0.031 | 1.2 ± 0.057 | 1.15 ± 0.025 |
| QKSSKENIENEEYVINL [ECM29] | 3.02 ± 0.1 | 3.32 ± 0.086 | 2.75 ± 0.082 | 3.02 ± 0.082 |
| FVIRREVTKGEKTYTKA [RPS6A] | 3.24 ± 0.17 | 3.13 ± 0.14 |  | 3.53 ± 0.13 |
| DSPFSLICQNNLNAFVD [SRP72] | 2.98 ± 0.069 | 3 ± 0.055 | 2.85 ± 0.05 | 2.92 ± 0.046 |
| HRSKKDQDQYLEIAKDF [IRR1] | 3.15 ± 0.14 | 3.21 ± 0.12 | 3.04 ± 0.13 | 3.6 ± 0.27 |
| DDALHAKKLPNGNWEVG [DIS3] | 3.3 ± 0.098 | 3.12 ± 0.083 | 2.94 ± 0.057 | 3.05 ± 0.057 |
| QNDTPMFKLGNFESPVL [YLR018C/POM34] | 2.08 ± 0.066 | 2.48 ± 0.059 | 2.62 ± 0.05 | 2.29 ± 0.034 |

From the supplement of paper PMC9732359
